Experiments:
Assay in all cases: cell-based or functional assay
[1] = molecular target: HIV-1 Env of pseudovirus 6244_13_B5_4576 (HIV-1)
[2] = molecular target: HIV-1 Env of pseudovirus WEAU_d15_410_787 (HIV-1)
[3] = molecular target: HIV-1 Env of pseudovirus ZM247v1(Rev-) (HIV-1)
[4] = molecular target: HIV-1 Env of pseudovirus 6535.3 (HIV-1)
[5] = molecular target: HIV-1 Env of pseudovirus TRO.11 (HIV-1)
[6] = molecular target: HIV-1 Env of pseudovirus CAAN5342.A2 (HIV-1)
[7] = molecular target: HIV-1 Env of pseudovirus Ce1086_B2 (HIV-1)
[8] = molecular target: HIV-1 Env of pseudovirus ZM233M.PB6 (HIV-1)
[9] = molecular target: HIV-1 Env of pseudovirus 0260.v5.c36 (HIV-1)
[10] = molecular target: HIV-1 Env of pseudovirus HIV-001428-2.42 (HIV-1)
[11] = molecular target: HIV-1 Env of pseudovirus Q769.d22 (HIV-1)
[12] = molecular target: HIV-1 Env of pseudovirus Ce2010_F5 (HIV-1)
[13] = molecular target: HIV-1 Env of pseudovirus Q23.17 (HIV-1)
[14] = molecular target: HIV-1 Env of pseudovirus 1054_07_TC4_1499 (HIV-1)
[15] = molecular target: HIV-1 Env of pseudovirus MS208.A1 (HIV-1)
[16] = molecular target: HIV-1 Env of pseudovirus Ce1172_H1 (HIV-1)
[17] = molecular target: HIV-1 Env of pseudovirus SC05_8C11_2344 (HIV-1)
[18] = molecular target: HIV-1 Env of pseudovirus QH0692.42 (HIV-1)
[19] = molecular target: HIV-1 Env of pseudovirus HIV-0013095-2.11 (HIV-1)
[20] = molecular target: HIV-1 Env of pseudovirus CNE53 (HIV-1)
[21] = molecular target: HIV-1 Env of pseudovirus REJO4541.67 (HIV-1)
[22] = molecular target: HIV-1 Env of pseudovirus Ce1176_A3 (HIV-1)
[23] = molecular target: HIV-1 Env of pseudovirus PVO.4 (HIV-1)
[24] = molecular target: HIV-1 Env of pseudovirus HIV-16845-2.22 (HIV-1)

10E8 (antibody)
IC50, titer in TZM.bl cells [1]: 0.086 µg/mL | IC80, titer in TZM.bl cells [1]: 0.809 µg/mL | IC50, titer in TZM.bl cells [2]: > 10 µg/mL | IC80, titer in TZM.bl cells [2]: > 10 µg/mL | IC50, titer in TZM.bl cells [3]: 0.506 µg/mL | IC80, titer in TZM.bl cells [3]: 6.75 µg/mL | IC50, titer in TZM.bl cells [4]: 0.081 µg/mL | IC80, titer in TZM.bl cells [4]: 1.32 µg/mL | IC50, titer in TZM.bl cells [5]: 0.034 µg/mL | IC80, titer in TZM.bl cells [5]: 0.25 µg/mL | IC50, titer in TZM.bl cells [6]: 1.28 µg/mL | IC80, titer in TZM.bl cells [6]: 9.28 µg/mL | IC50, titer in TZM.bl cells [7]: 1.16 µg/mL | IC80, titer in TZM.bl cells [7]: 6.93 µg/mL | IC50, titer in TZM.bl cells [8]: 0.442 µg/mL | IC80, titer in TZM.bl cells [8]: 2.39 µg/mL | IC50, titer in TZM.bl cells [9]: > 10 µg/mL | IC80, titer in TZM.bl cells [9]: > 10 µg/mL | IC50, titer in TZM.bl cells [10]: 0.809 µg/mL | IC80, titer in TZM.bl cells [10]: 7.3 µg/mL | IC50, titer in TZM.bl cells [11]: 1.67 µg/mL | IC80, titer in TZM.bl cells [11]: 10 µg/mL | IC50, titer in TZM.bl cells [12]: 1.84 µg/mL | IC80, titer in TZM.bl cells [12]: 8.61 µg/mL | IC50, titer in TZM.bl cells [13]: 1.64 µg/mL | IC80, titer in TZM.bl cells [13]: 7.04 µg/mL | IC50, titer in TZM.bl cells [14]: 0.046 µg/mL | IC80, titer in TZM.bl cells [14]: 0.305 µg/mL | IC50, titer in TZM.bl cells [15]: 0.609 µg/mL | IC80, titer in TZM.bl cells [15]: 3.72 µg/mL | IC50, titer in TZM.bl cells [16]: 0.722 µg/mL | IC80, titer in TZM.bl cells [16]: 4.82 µg/mL | IC50, titer in TZM.bl cells [17]: 0.665 µg/mL | IC80, titer in TZM.bl cells [17]: 2.74 µg/mL | IC50, titer in TZM.bl cells [18]: 0.442 µg/mL | IC80, titer in TZM.bl cells [18]: 4.05 µg/mL | IC50, titer in TZM.bl cells [19]: 0.031 µg/mL | IC80, titer in TZM.bl cells [19]: 0.213 µg/mL | IC50, titer in TZM.bl cells [20]: 0.326 µg/mL | IC80, titer in TZM.bl cells [20]: 1.92 µg/mL | IC50, titer in TZM.bl cells [21]: 0.203 µg/mL | IC80, titer in TZM.bl cells [21]: 1.69 µg/mL | IC50, titer in TZM.bl cells [22]: 0.867 µg/mL | IC80, titer in TZM.bl cells [22]: 3.92 µg/mL | IC50, titer in TZM.bl cells [23]: 0.747 µg/mL | IC80, titer in TZM.bl cells [23]: > 10 µg/mL | IC50, titer in TZM.bl cells [24]: 0.068 µg/mL | IC80, titer in TZM.bl cells [24]: 0.495 µg/mL

N49P9.1 (antibody)
IC50 [1]: 0.343 µg/mL | IC80 [1]: 1.5 µg/mL | MPI [1]: 100 | IC50 [2]: 0.068 µg/mL | IC80 [2]: 0.253 µg/mL | MPI [2]: 100 | IC50 [3]: 1.88 µg/mL | IC80 [3]: 17.8 µg/mL | MPI [3]: 87 | IC50 [4]: 0.232 µg/mL | IC80 [4]: 2.06 µg/mL | MPI [4]: 100 | IC50 [5]: 0.052 µg/mL | IC80 [5]: 0.196 µg/mL | MPI [5]: 100 | IC50 [6]: 2.16 µg/mL | IC80 [6]: 8 µg/mL | MPI [6]: 99 | IC50 [7]: 0.814 µg/mL | IC80 [7]: 4.08 µg/mL | MPI [7]: 96 | IC50 [8]: > 50 µg/mL | IC80 [8]: > 50 µg/mL | MPI [8]: 6 | IC50 [10]: 0.037 µg/mL | IC80 [10]: 0.12 µg/mL | MPI [10]: 99 | IC50 [11]: 0.039 µg/mL | IC80 [11]: 0.148 µg/mL | MPI [11]: 100 | IC50 [12]: 0.12 µg/mL | IC80 [12]: 0.38 µg/mL | MPI [12]: 100 | IC50 [13]: 0.029 µg/mL | IC80 [13]: 0.106 µg/mL | MPI [13]: 100 | IC50 [14]: 1.8 µg/mL | IC80 [14]: 7.2 µg/mL | MPI [14]: 100 | IC50 [15]: 0.082 µg/mL | IC80 [15]: 0.248 µg/mL | MPI [15]: 100 | IC50 [16]: > 50 µg/mL | IC80 [16]: > 50 µg/mL | MPI [16]: 42 | IC50 [17]: 1.3 µg/mL | IC80 [17]: 4.39 µg/mL | MPI [17]: 100 | IC50 [18]: 0.107 µg/mL | IC80 [18]: 0.709 µg/mL | MPI [18]: 100 | IC50 [19]: 0.358 µg/mL | IC80 [19]: 1.26 µg/mL | MPI [19]: 100 | IC50 [20]: 0.14 µg/mL | IC80 [20]: 0.647 µg/mL | MPI [20]: 99 | IC50 [21]: 0.064 µg/mL | IC80 [21]: 0.231 µg/mL | MPI [21]: 100 | IC50 [22]: 0.44 µg/mL | IC80 [22]: 0.998 µg/mL | MPI [22]: 100 | IC50 [23]: 0.181 µg/mL | IC80 [23]: 0.874 µg/mL | MPI [23]: 100 | IC50 [24]: 2.13 µg/mL | IC80 [24]: 10.7 µg/mL | MPI [24]: 98

N49P19 (antibody)
IC50 [1]: 0.571 µg/mL | IC80 [1]: 1.82 µg/mL | MPI [1]: 100 | IC50 [2]: 0.177 µg/mL | IC80 [2]: 0.612 µg/mL | MPI [2]: 100 | IC50 [3]: > 50 µg/mL | IC80 [3]: > 50 µg/mL | MPI [3]: 5 | IC50 [4]: 9.09 µg/mL | IC80 [4]: 28.3 µg/mL | MPI [4]: 95 | IC50 [5]: 0.394 µg/mL | IC80 [5]: 1.3 µg/mL | MPI [5]: 100 | IC50 [6]: 1.24 µg/mL | IC80 [6]: 4.4 µg/mL | MPI [6]: 100 | IC50 [7]: 0.613 µg/mL | IC80 [7]: 2.68 µg/mL | MPI [7]: 97 | IC50 [8]: > 50 µg/mL | IC80 [8]: > 50 µg/mL | MPI [8]: 4 | IC50 [10]: > 50 µg/mL | IC80 [10]: > 50 µg/mL | MPI [10]: 44 | IC50 [11]: 0.14 µg/mL | IC80 [11]: 0.519 µg/mL | MPI [11]: 100 | IC50 [12]: 7.66 µg/mL | IC80 [12]: 45.4 µg/mL | MPI [12]: 82 | IC50 [13]: 0.234 µg/mL | IC80 [13]: 1.37 µg/mL | MPI [13]: 100 | IC50 [14]: 2.85 µg/mL | IC80 [14]: 11.7 µg/mL | MPI [14]: 99 | IC50 [15]: 0.501 µg/mL | IC80 [15]: 1.99 µg/mL | MPI [15]: 99 | IC50 [16]: > 50 µg/mL | IC80 [16]: > 50 µg/mL | MPI [16]: 3 | IC50 [17]: 0.954 µg/mL | IC80 [17]: 3.3 µg/mL | MPI [17]: 100 | IC50 [18]: 2.56 µg/mL | IC80 [18]: 13.4 µg/mL | MPI [18]: 98 | IC50 [19]: > 50 µg/mL | IC80 [19]: > 50 µg/mL | MPI [19]: 18 | IC50 [20]: 1.5 µg/mL | IC80 [20]: > 50 µg/mL | MPI [20]: 78 | IC50 [21]: 0.169 µg/mL | IC80 [21]: 0.859 µg/mL | MPI [21]: 100 | IC50 [22]: 1.57 µg/mL | IC80 [22]: 9.84 µg/mL | MPI [22]: 99 | IC50 [23]: 0.85 µg/mL | IC80 [23]: 2.95 µg/mL | MPI [23]: 100 | IC50 [24]: 14.5 µg/mL | IC80 [24]: > 50 µg/mL | MPI [24]: 73

Source: patent publication US20230002480A1
